Measurements from article PMC9496334, “In Silico Maturation of a Nanomolar Antibody against the Human CXCR2” (Biomolecules, 2022).

T1: Biotin-labeled human CXCR2 N-terminal extracellular peptide (pepN48) (Homo sapiens, UniProt P25025, biotin label (position not given))
T1 construct: CXC chemokine receptor 2 (CXCR2, interleukin 8 receptor beta), human, the first 48 residues of the protein; Held on the streptavidin chip by its biotin; also called N-terminal peptide; peptide of extracellular N-terminal domain of human CXCR2
T1 chain: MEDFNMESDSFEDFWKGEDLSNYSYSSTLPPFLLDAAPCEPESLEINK


Assays:
[1] = biological target: T1, Biotin-labeled human CXCR2 N-terminal …; experiment: SPR; biotin-labeled pepN48 immobilised on a streptavidin Series S Sensor Chip SA; Biacore T200; IgG1 antibodies injected as analytes in HBS-EP+ buffer pH 7.4; kinetics fitted globally; conditions: both partners purified
[2] = biological target: T1, Biotin-labeled human CXCR2 N-terminal …; experiment: as above; conditions: both partners purified

Row | Binder | Kd [1] | other results
1 | abN48 (antibody, V domains shown, VH of abN48; constant region of the human IgG1 heavy chain, from the pFuse heavy-chain vector; VL of abN48, the same for all studied antibodies; light-chain constant region of the pFuse light-chain vector pfuse2ss-hcll2; Full-length IgG1 in the experiments; the crystal structure 6KVF holds the Fab; also called abN48 antibody; source: 293F cells, co-transfected, purified from the medium (HiTrap …)) VH: QVQLVQSGAEVKKPGSSVKVSCKASGGTLSSYAISWVRQAPGQGPEWMGWINPNSGGTNYAQKFQGRVTMTRDTSISTAYMELSRLRPDDTAVYYCASGYCSSTSCYDYWGQGTLVTVSS VL: QAVLTQPSSLSASPGASVSLTCTLRSGINVGAYRIYWYQQKPGSPPQFLLRYKSDSDKQQGSGVPSRFSGSRDASANAGILLISGLRSEDEADYYCAIWHSSAWVFGGGTQLTVL | 1.3 nM | 
2 | abN48-28 (antibody, V domains shown, parent VH in PDB 6KVF; constant region of the human IgG1 heavy chain, from the pFuse heavy-chain vector; as the VL of the light chain of m1; light-chain constant region of the pFuse light-chain vector pfuse2ss-hcll2; Full-length IgG1; source: 293F cells, co-transfected, purified from the medium (HiTrap Protein A)) VH: QVQLVQSGAEVKKPGSSVKVSCKASGGTLSSYAISWVRQAPGQGPEWMGWINPNSGGTNYAQKFQGRVTMTRDTSISTAYMELSRLRPDDTAVYYCASGYCSPSGCYVYWGQGTLVTVSS VL: QAVLTQPSSLSASPGASVSLTCTLRSGINVGAYRIYWYQQKPGSPPQFLLRYKSDSDKQQGSGVPSRFSGSRDASANAGILLISGLRSEDEADYYCAIWHSSAWVFGGGTQLTVL | 0.65 nM | 
3 | abN48-10 (antibody, V domains shown, parent VH in PDB 6KVF; constant region of the human IgG1 heavy chain, from the pFuse heavy-chain vector; as the VL of the light chain of m1; light-chain constant region of the pFuse light-chain vector pfuse2ss-hcll2; Full-length IgG1; source: 293F cells, co-transfected, purified from the medium (HiTrap Protein A)) VH: QVQLVQSGAEVKKPGSSVKVSCKASGGTLSSYAISWVRQAPGQGPEWMGWINPNSGGTNYAQKFQGRVTMTRDTSISTAYMELSRLRPDDTAVYYCASGYCSRFNCKDYWGQGTLVTVSS VL: QAVLTQPSSLSASPGASVSLTCTLRSGINVGAYRIYWYQQKPGSPPQFLLRYKSDSDKQQGSGVPSRFSGSRDASANAGILLISGLRSEDEADYYCAIWHSSAWVFGGGTQLTVL | 0.27 nM | 
4 | abN48-3 (antibody, V domains shown, parent VH in PDB 6KVF; constant region of the human IgG1 heavy chain, from the pFuse heavy-chain vector; as the VL of the light chain of m1; light-chain constant region of the pFuse light-chain vector pfuse2ss-hcll2; Full-length IgG1; source: 293F cells, co-transfected, purified from the medium (HiTrap Protein A)) VH: QVQLVQSGAEVKKPGSSVKVSCKASGGTLSSYAISWVRQAPGQGPEWMGWINPNSGGTNYAQKFQGRVTMTRDTSISTAYMELSRLRPDDTAVYYCASGYCSFAICFDSWGQGTLVTVSS VL: QAVLTQPSSLSASPGASVSLTCTLRSGINVGAYRIYWYQQKPGSPPQFLLRYKSDSDKQQGSGVPSRFSGSRDASANAGILLISGLRSEDEADYYCAIWHSSAWVFGGGTQLTVL | 2 nM | 
5 | abN48-8 (antibody, V domains shown, parent VH in PDB 6KVF; constant region of the human IgG1 heavy chain, from the pFuse heavy-chain vector; as the VL of the light chain of m1; light-chain constant region of the pFuse light-chain vector pfuse2ss-hcll2; Full-length IgG1; source: 293F cells, co-transfected, purified from the medium (HiTrap Protein A)) VH: QVQLVQSGAEVKKPGSSVKVSCKASGGTLSSYAISWVRQAPGQGPEWMGWINPNSGGTNYAQKFQGRVTMTRDTSISTAYMELSRLRPDDTAVYYCASGYCNRTRCYDHWGQGTLVTVSS VL: QAVLTQPSSLSASPGASVSLTCTLRSGINVGAYRIYWYQQKPGSPPQFLLRYKSDSDKQQGSGVPSRFSGSRDASANAGILLISGLRSEDEADYYCAIWHSSAWVFGGGTQLTVL | 0.83 nM | 
6 | abN48-2 (antibody, V domains shown, VH of abN48-2: as the VH of m1 with two serines of CDR3 changed to arginines; parent VH in PDB 6KVF; constant region of the human IgG1 heavy chain, from the pFuse heavy-chain vector; as the VL of the light chain of m1; light-chain constant region of the pFuse light-chain vector pfuse2ss-hcll2; Full-length IgG1; source: 293F cells, co-transfected, purified from the medium (HiTrap Protein A)) VH: QVQLVQSGAEVKKPGSSVKVSCKASGGTLSSYAISWVRQAPGQGPEWMGWINPNSGGTNYAQKFQGRVTMTRDTSISTAYMELSRLRPDDTAVYYCASGYCSRTRCYDYWGQGTLVTVSS VL: QAVLTQPSSLSASPGASVSLTCTLRSGINVGAYRIYWYQQKPGSPPQFLLRYKSDSDKQQGSGVPSRFSGSRDASANAGILLISGLRSEDEADYYCAIWHSSAWVFGGGTQLTVL |  | Kd [2]: 0.11 nM; koff [2]: 0.00027 s⁻¹; kon [2]: 2.5e+06 M⁻¹ s⁻¹

More lines, in order of falling Kd [1], values ahead:

Row | Kd [1] | Binder | other results
7 | 0.26 nM | abN48-1 (antibody, V domains shown, parent VH in PDB 6KVF; constant region of the human IgG1 heavy chain, from the pFuse heavy-chain vector; as the VL of the light chain of m1; light-chain constant region of the pFuse light-chain vector pfuse2ss-hcll2; Full-length IgG1; source: 293F cells, co-transfected, purified from the medium (HiTrap Protein A)) VH: QVQLVQSGAEVKKPGSSVKVSCKASGGTLSSYAISWVRQAPGQGPEWMGWINPNSGGTNYAQKFQGRVTMTRDTSISTAYMELSRLRPDDTAVYYCASGFCTRTICFVYWGQGTLVTVSS VL: QAVLTQPSSLSASPGASVSLTCTLRSGINVGAYRIYWYQQKPGSPPQFLLRYKSDSDKQQGSGVPSRFSGSRDASANAGILLISGLRSEDEADYYCAIWHSSAWVFGGGTQLTVL | 
8 | 0.23 nM | abN48-38 (antibody, V domains shown, parent VH in PDB 6KVF; constant region of the human IgG1 heavy chain, from the pFuse heavy-chain vector; as the VL of the light chain of m1; light-chain constant region of the pFuse light-chain vector pfuse2ss-hcll2; Full-length IgG1; source: 293F cells, co-transfected, purified from the medium (HiTrap Protein A)) VH: QVQLVQSGAEVKKPGSSVKVSCKASGGTLSSYAISWVRQAPGQGPEWMGWINPNSGGTNYAQKFQGRVTMTRDTSISTAYMELSRLRPDDTAVYYCASGYCSRSRCYDYWGQGTLVTVSS VL: QAVLTQPSSLSASPGASVSLTCTLRSGINVGAYRIYWYQQKPGSPPQFLLRYKSDSDKQQGSGVPSRFSGSRDASANAGILLISGLRSEDEADYYCAIWHSSAWVFGGGTQLTVL | 
9 | 0.13 nM | abN48-29 (antibody, V domains shown, parent VH in PDB 6KVF; constant region of the human IgG1 heavy chain, from the pFuse heavy-chain vector; as the VL of the light chain of m1; light-chain constant region of the pFuse light-chain vector pfuse2ss-hcll2; Full-length IgG1; source: 293F cells, co-transfected, purified from the medium (HiTrap Protein A)) VH: QVQLVQSGAEVKKPGSSVKVSCKASGGTLSSYAISWVRQAPGQGPEWMGWINPNSGGTNYAQKFQGRVTMTRDTSISTAYMELSRLRPDDTAVYYCASGYCGRARCTSFWGQGTLVTVSS VL: QAVLTQPSSLSASPGASVSLTCTLRSGINVGAYRIYWYQQKPGSPPQFLLRYKSDSDKQQGSGVPSRFSGSRDASANAGILLISGLRSEDEADYYCAIWHSSAWVFGGGTQLTVL | 
